The values below come from patent publication US20250066490A1, “ANTI-CD70 ANTIBODIES, CONJUGATES THEREOF AND METHODS OF USING THE SAME” (ProfoundBio US Co., priority 2021, published 2025).

Like-named read-outs stand apart in the source and are kept apart here.

In general, Kd refers to the free concentration of one partner at which half of the binding sites on the other are occupied at equilibrium, for simple one-to-one binding.

The target in series [1] is T1, human CD70 extra-cellular domain (ECD) (Homo sapiens, UniProt P32970).
T1 construct: human, rat, or mouse CD70 extra-cellular domain (ECD) linked to His tag; His tag; purchased ACRO systems
T1 sequence (P32970 39-193 limits assumed): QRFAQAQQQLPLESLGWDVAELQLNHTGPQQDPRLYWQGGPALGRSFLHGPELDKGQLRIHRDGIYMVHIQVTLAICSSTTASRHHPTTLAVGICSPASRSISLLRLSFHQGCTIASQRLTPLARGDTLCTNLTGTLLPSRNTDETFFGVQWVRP
The series can be described thus: Biolayer interferometry (BLI), human CD70. It counts as binding. The protocol: Recombinant proteins consisting of human, rat, or mouse CD70 extra-cellular domain (ECD) linked to His tag was purchased (from ACRO systems). 69A7 and 2E7 (20 nM) were immobilized on anti-human IgG Fc biosensor tips (ForteBio). Binding assays using one concentration (100 nM) of recombinant protein in solution were performed using Octet RED (ForteBio). Association time was set at 180s and dissociation time was set at 300s. Binding affinity was calculated using ForteBio Data Acquisition 6.3 software. Affinity was derived by fitting the kinetic data to a 1:1 Langmuir binding model utilizing global fitting algorithms. […] Binding assays for 2E7 using multiple dilutions (from 200 nM down to 3.13 nM) of species' recombinant CD70 ECD proteins in solution were also performed using the same method.
(In general: In BLI a coated tip is dipped into the sample, and binding shifts an interference pattern.)

Another series can be described thus: 2E7 rat PK. In kind it is in vivo, Sprague Dawley rats. The conditions noted are these: intravenous infusion, 3 mg/kg, FIG. 14. The protocol:
2E7 was administered via intravenous infusion at 3 mg/kg to male Sprague Dawley rats (n=3 per group). Orbital blood was sampled from each rat at various time points post dosing. Circulating concentrations of 2E7 were analyzed by an ELISA assay (ProfoundBio) and calculated using the GraphPad Prism 6 software.

For series [2], the system named is CD70-negative cell line, MCF-7. The series can be described thus: 2E7 binding by flow cytometry, MCF-7. The conditions noted are these: FIG. 12. The protocol: Binding activity of 2E7 or the isotype control with a target cell line (Raji) or a cell line (MCF-7) that has negligible level of CD70 expression were evaluated by flow cytometry (Beckman, Cytoflex). 3×10^5 cells per well were seeded on a 96-well V-bottomed plate and incubated with 100 μl of 2E7 in serial dilutions. After 30 min incubation at 4° C., cells were washed twice with PBS, stained with 100 μl of 1:200 diluted PE-conjugated anti-human Fc in FACS buffer (1×PBS containing 1% BSA), then incubated at 4° C. for 30 min. Cells were finally washed two times with PBS and analyzed by flow cytometric analysis.

The test system of series [3] is 786-O, Caki-1, U251 and DBTRG-05MG cells. The series can be described thus: Antibody binding by flow cytometry, statements across all four tumor cell lines. The following applies: range over the four cell lines. Also on record: species or system human. The protocol:
The lead antibodies were tested for binding to renal carcinoma cells and glioblastoma cells expressing CD70 on the cell surface by flow cytometry. Cell lines 786-O (ATCC® CRL-1932™, provided by COBIOER), Caki-1 (ATCC® HTB-46™, provided by COBIOER), U251 and DBTRG-05MG (ATCC® CRL-2020™, provided by COBIOER) were each tested for antibody binding. 786-O cells were cultured with RPMI 1640 medium (Gibco, Cat #11875093) containing of 10% FBS (Gibco, Cat #10099141) while Caki-1 cells were cultured with McCoy's 5a Modified medium (Gibco, Cat #16600082) containing 10% FBS. U251 cells were cultured with MEM medium containing of 10% FBS and 1% NEAA+1 mM sodium pyruvate. DBTRG-05MG cells were cultured with DMEM medium (Gibco, Cat #C11995500BT) containing of 10% FBS. Each of the lead antibodies and the controls were incubated for 30 mins with the different cell lines (3×10^5 cells per well) in 0.2 ml FACS buffer (1×PBS with 0.1% BSA) at 4° C. Then, the cells were pelleted, washed, and incubated at 4° C. for 30 mins with 100 μl of 1:200 diluted PE-conjugated anti human Fc (Abcam, Ab98596) in FACS buffer. The cells were pelleted again, washed with PBS, resuspended in FACS buffer and analyzed by flow cytometer (Beckman, CytoFLEX).

The target in a further series is T2, CD70 ECD (Homo sapiens, UniProt P32970).
T2 sequence (P32970 39-193 limits assumed): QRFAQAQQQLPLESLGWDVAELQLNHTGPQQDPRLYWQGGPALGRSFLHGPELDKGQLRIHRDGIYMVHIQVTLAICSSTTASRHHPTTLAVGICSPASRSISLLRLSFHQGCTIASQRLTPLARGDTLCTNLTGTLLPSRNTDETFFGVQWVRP
The series can be described thus: Biacore affinity measurement on immobilized CD70 ECD. In kind it is binding. Here is the method:
The immobilization of antigen CD70 ECD was performed at 25° C. with HBS-EP as the running buffer. Sensor chip surface of flow cells 1, 4 were activated by freshly mixed 50 mmol/L N-Hydroxy succinimide (NHS) and 200 mmol/L 1-ethyl-3-(3-dimethylaminopropyl) carbodiimide hydrochloride (EDC) for 420s (10 μL/min). Afterwards, CD70 antigen diluted in 10 mmol/L NaAC (pH 4.5) was injected into flow cell 4 to achieve conjugation of the appropriate Response Unit, while flow cell 1 was set as a blank. After the amine coupling reaction, the remaining active coupling sites on chip surface were blocked by 420s injection of 1 mol/L ethanolamine hydrochloride.
The assay was performed at 25° C. and the running buffer was HBS-EP. Diluted antibodies were injected over the surface of flow cells 1 and 4 during the association phase, followed by injecting running buffer as the dissociation phase. All the data were processed using Biacore T200 Evaluation software version 3.1. Flow cell 1 and a blank injection of buffer in each cycle were used as a double reference for Response Units subtraction. Kinetic data of the interaction between the antibodies and CD70 antigen were obtained through affinity measurement.
A general note: Surface plasmon resonance follows binding to a sensor surface in real time, without labels.

Setting [4] is: Hu CD70 100 nM, one concentration.

B1: 2E7: anti-CD70 antibody clone, VH SEQ 7 and VL SEQ 8; tested as scFv and full human IgG1/kappa (antibody, V domains shown)
VH: QVQLQESGPGLVKPSETLSLTCTVSGGSVSSDYYYWSWIRQPPGKGLEWLGYIYYSGSTNYNPSLKSRVTISVDTSKNQFSLKLRSVTTADTAVYYCARGDGDFLGVCFDYWGQGTLVTVSS
VL: EIVLTQSPATLSLSPGERATLSCRASQSVSSYLAWYQQKPGQAPRLLIFDASNRATGIPARFSGSGSGTDFTLTISSLEPEDFAVYYCQQRSNWPLTFGGGTKVEIK
modifications: Synthetic 2E7 VH amino acid sequence; Synthetic 2E7 VL amino acid sequence
notes: tested as scFv and full human IgG1/kappa
As to B1, the Response in series [1] (HU CD70 3.13 nM) is 0.1732; in series [1] (HU CD70 6.25 nM), 0.2136; in series [1] (HU CD70 12.5 nM), 0.3519; in series [1] (HU CD70 25 nM) it was 0.5319; in series [1] (HU CD70 50 nM) it was 0.6227; in series [1] (HU CD70 100 nM, dilution series), 0.7695. The Response stood at 0.825 in series [1] (HU CD70 200 nM) and 0.5157 in series [1] (setting [4]). Besides, the “ka” value in series [1] (HU CD70, multiple dilutions 200-3.13 nM, global fit) was 314300 M⁻¹ s⁻¹; in series [1] (setting [4]), 365000 M⁻¹ s⁻¹; with CD70 ECD (25° C., CD70 immobilized), 75400 M⁻¹ s⁻¹. Also, the Kd in series [1] (human CD70, multiple dilutions (200 nM down to 3.13 nM), read-out: KD) amounted to 810 pM; in series [1] (human CD70, one concentration (100 nM), read-out: equilibrium dissociation constant (KD)), 970 pM. Moreover, in the series “2E7 rat PK”, the “plasma PK” value was “stable plasma PK in rat that is characteristic of IgG1 antibodies”. Further, the “binding to MCF-7” value in series [2] is reported as “no binding”. For the same molecule, in series [3], the “EC50 relative to that of antibody 69A7” value is given as 1.8˜3.5 times. For the same molecule, in the series with CD70 ECD, the “affinity to CD70 antigen, fold greater than the reference antibody h1F6” value is recorded as 2-3 fold. The “Rmax (RU)” value with CD70 ECD (25° C., CD70 immobilized) stood at 32.94 RU. Further, in the series with CD70 ECD (25° C., CD70 immobilized), the “kd” value was 0.00106 s⁻¹.
